Assay results from the DeepSol protein solubility set.

Assay: soluble on expression in E. coli; label from the status in PepcDB or PDB records

Soluble on expression in E. coli, soluble:
MPVAEQPYHHGSLRRVLLARAESTLEKDGVDGLSLRQLAREAGVSHAAPSKHFRDRQALLDALAESGFLRLTAALERAVEEAESHARARFAALAGAYVSFALAHRELLALMYGNKHAPGAASQVVEAGHASMDLTVRIVTEAQAAGDIGPGDASRIALVAFATFHGIATLAAGGMLDGAPVDEVVTAASDTFWRGLAQA, MQAGARLARQDNAMADAPAPAPKRARAGRPPTLAAPRERILEEAARLFARSGYENSSVADLAAAIGVSKAALYHYFPTKQDIYDAIILETLAGLLQAVTREVERQREACERLRAFMVGHARYFARHHEQFVTMLIGYSGMALPERADAAQLRDRYEQLLRDLLEQGMATGTLRRLDVAATGRAVLSMLNWMVRWYKPGQGDSAEQIADGYYDLLFNGLRI, MQAVNTTSGGAVGVDRKQYMFSMLSSQEVDQMYAQSYQKTLGEAKSAGVLDTSSADARRVKAIAQRLIPQTAAFRPDATGWNWEVNVVKSDELNANCGPGGKIIFYTGLIDKLKLTDDEIAAVMGHEIAHALREHGREAMSKAYGVQVASQIGALAGLGQESLQLANTGVDYLMTLPNSRANENEADLIGLELAARAGYNPEAAITLWQKMGRASGGASQPEFTSTHPSDSSRMANLQAAIPKVMPLYQQARRGKLEHHHHHH, MQFSKMHGLGNDFVVVDGVTQNVFFTPETIRRLANRHCGIGFDQLLIVEAPYDPELDFHYRIFNADGSEVSQCGNGARCFARFVTLKGLTNKKDISVSTQKGNMVLTVKDDNQIRVNMGEPIWEPAKIPFTANKFEKNYILRTDIQTVLCGAVSMGNPHCVVQVDDIQTANVEQLGPLLESHERFPERVNAGFMQIINKEHIKLRVYERGAGETQASGSGACAAVAVGIMQGLLNNNVQVDLPGGSLMIEWNGVGHPLYMTGEATHIYDGFITL

Soluble on expression in E. coli, not soluble:
MPTPPGQSSSQPLPAKELGYFKKIVKSYEQKQYKAGLKFAQKILTSPGFAEHGETLAMKGLILNCMGKLQEAQDCVRRGLVSDLRSYVCWHVFGLIQKTEKKYDEAIKAYKRALMLEKDNLQILRDLSLLQIHIRDYDGYLSSKYELLQLRQTQRVSWLGYIVAHHLLKEHNLALGIMAEYIKNNTPSGYDFEFSELILYQNLIMREAGLPDVALQKLEENSTHIVDKVAYMETRANLLMDLEQPKQAENVWRALIERNPDSLEYYDMLEKCMGIKDSPKAQLAMLDGLAEKFKRAAAPRRLALYLVEGEELRRRLHEWMIPMLRKGAPSLFASLVPLYKYPQKQAVIESLITEYVKKMDDEGYGNVSLDGKDQECEPPTTALWLYVLASHHFDRCGMTQLALNYIERAIQHTPTVVENYMLKARIYKHAGDYDEAARWMEEAQSLDTADRYINGKCGKYLLRAKRSDEANKMLAKFTREGENAASHLTDMQCMWYELESGRAFRSVNKYGEALRKAHHIDFHFNTWIEDQYDFHTYCLRKMTLCSYIRLLRMCDKLRDADYYYQGAKLAIKIYLRMIDRPDDMNEHSALIKEGMTDQEIKKMKKKLKKQKELQEEEEKKKKDKEQKEEGLQRGPQIDAEALLKTEDPLGEAAKFCHNIHTFGTQKVTGYALCAEVYRRKGKVLLALKCLNEGEDREPTHPLLHVQKVKFLAYWPKCELSGLVKETADELMKCVYGAERDAAELNEKFKIEHQHDFAHRLAYAEAQYSIDSSTNLISWILKSIEDSKVNGRSLKMMIKLKDGIEYGKYGKWSKDDMEKLRKQVHSLFPLSLDFGGGVQHKSASAAPTSAETN, MPVGPPVPPKPSTPIMNGERLGEYGVGGHIGNGDVVPERRGILPASLREKINQKKELEGRATPSIEPDLVGRDRYDKASRCFSYVPAKSMQEAFERPRRTSFSRAIEKRENSVENVSQEEVARTEIPQSYQQNDISTPAKWDEQVEDAKQSALLEELARAPSAMQHNYWGNGEVDNVQVVDQAQRAVITPTSTLQRRPKPPARSGSYRTLNDDAYCSDMDELCDPEYYLNYNSNTAPLPPPRRQEQHAGTRSVQLPRKKMNFDAVTDPLDDVLESTKRLGSAYSVGDVRGGQQQQQEQHNASNDFNFSNTLNNTPTDYRQHYRNRNCQSVTTPRNHHFSTPSREQEADAADTWLSGKLKKVRSKRDIDPDIVRRRTQEKMLLEELKDSAANNDENQHNLPNGHARGAGLQNIDPLAEFRREEERLRNTRSPYGEERWRGRMRGKPPTPPPRESSASPVNSLPRGTPAHHMDRQRHNQSVPLPMHHRQFDEDFDVNSLFNFSHDPRQQSTTLERGGRSLSRGARIQDAYYASQQDLSANNRFNSGQERVAAAIYRAETAHRDMYASGTINRAETPGRYFPENSAVLERSSTPSFPVSRATPLPFHPLLYNNGERGGSGHAAGGGGGGHNGYSTMNNRSASPRLFGGSSTLSRRSSVNSVDILSEILILQTSYLSCSYILLYLWNFYSLAFASNFKTMSDTATTSTTVVIHLKRSNHDDASASATTAQLQQRSRYCDVSLASSEESSDLSDAEEKDDLIRRTITSSSKDTMEEGDDDDEEEFDDVVMEEDVGGGTDANEQFSRVIQRQISGAGGGILKKSNGKDTSEIIHHHPLFVKDTSKYWYKPTISREQAINMLRDKPPGTFVVRDSNSFPGAFGLALKVSTPPPGVNPGDGSELVRHFLIEPSPKGVKLKGCNNEPVFGSLSALVYQHSITALALPTKLVLPDFDPAATPEHLSATQALLEQGAACNVVYVGSVDVESLTGNECVKRSIATCSQRAINGDSRAVSVHFKVSSQGVTLTDNTRKVFFRRHFNVQSVIFAGMDPIERRFENTRALGFHDGCIAQARLFAFVARIPSSSENACHVFAELEPEQPGSAVVNFINKVMLAQKNRS, MPVKVLNFPSVVLQHFLVGLTSTELFELTQCSLKSKDRVRPYEKSNKTFRMAVDFQRNWVDIRGVYRFYVKELVDGKLPKTYGKMGVREFGDKKVQVELDENEKTINIFWPTTEKEDRTFAVMKVAEHFIYTLGLGEFESVTLGQENHAGRIIDWANEKNLNIANFTIGNVDKEHDDVDKVAEKLYSASFFKKVSANFKCLINPTEAFKPNEFLPGIPKNTNMIFFHGAHWMTIDTLKDFTACSVILYDCKFTNKDINEFIKLWKNKEFERIFYISINVPQGSGFKLTEVIAGLDGFGEIENDATTMKREDGKEIEVSVLDEKKQIRIVVD, MPVNIPPLLPEQLLPIPGLSLGTAEASIKRPGRKDILVITLAENTRVAGVFTRNRFCAAPVTVARSHLTGSLPIRALVINTGNANAGTGQSGIDHAHATCASLARLIGCQTQQVLPFSTGVIMEPLPVEKIITHLPQALANLAPDNWFAAAQAIMTTDIVPKGVSRQIQINGTTVTITGIAKGSGMIHPNMATMLGYIATDAAVTQPLLDDLVRYATDRSFNCVTVDGDTSTNDALILMATGQAGNTPITVSTDPAFISLQAAITEVAALLAQMIVRDGEGATKFITVQVESGKTREECTKVAYAIAHSPLIKTACFASDPNLGRILAAIGYAGIEDLDVNLVQLYLGNILVAEHGGRAASYREEDGQRIMQAPEITIQVKLNRGNASTTVWTCDLSYDYVKINADYRSLEHHHHHH, MPVVKVRENEPFDVALRRFKRSCEKAGILSEVRRREHYEKPTTVRKRAKAAAQKRHAKKLSRENARRVRLYLEHHHHHH, MQAAVTVTPARLPELLLGLATVRPVFLWGAPGIGKSSLVRNFADSLGLECVSLLGTQLAPEDLIGVPQIRDGRSVFCPPESIARDEPYCLFLDELNAATPDVQKAFYSLILDRRIGNYELPKGSLVIGAGNRATDNALARPIASALVNRLTHVHLDASAKDWLVWAGENGIHPWITDHLTDRPDHLWSKPPKTEEPFSTPRSWHMLSDALHSFGQDLDEETLKVLAHGTLTPAHATAFCGYVKIVRSRFGIEAILKGEARWPSRIEDRDLLYYLAESFRGRLVKELPASKEHMSANGRQTAYRAKSLLVQLAEISVEVAQSVIASDADGNPLLPAWFLVEAARDMPRLVEARRLEHHHHHH, MQALQERLEKLENATGSEVWEVLKASEPELRQDLSSLQKLKADKESAAREALTALKTKKNELKNLKNDVESLKNEYKTYIEMVENGLKQSGLDIKQVVQVFERVLEESLSEKRLAILSTIDSAHISDIKSIKTPVKSILKLLEDPNKLQLRILVQSELREFSNSAIEIFRRSLWDLFQNQGIPMKNLGEMPNSEDFLQKIGELFQFSTDLDKLIAGNWGKSIENLISAAFGQLSNYCIDIIENERGEADFEWILKSSHDWAKNLSQILQKTVEKSNLESELKQEFEEKFNEKFVDFIKLITRKFLEKNIKEPTIFSNVAQMLKKFKISSEFNLSGDRDLQEPFYEPKFMSRWILVYYIVAKISEYPVLTQLFAPLKITVVSKKIFFF, MQALYQLSATGAQQQNQQIPIGLSNSLLYQQLAAHQQIAAQQHQQQLAVSAAHQTQNNIMLATSAPSLINHMENSTDGKVKDDPNSDYDLQLSIQQQLAAAAQAAQMGQTQIGPQIVGQQGQPVVATTAGSTNGSAAVTQPDPSTSSGPDGPKRLHVSNIPFRFRDPDLKTMFEKFGVVSDVEIIFNERGSKGFGFVTMERPQDAERARQELHGSMIEGRKIEVNCATARVHSKKVKPTGGILDQMNPLMAQSALAAQAQMNRALLLRSPLVAQSLLGRGAALIPGMQQPAFQLQAALAGNPLAQLQGQPLLFNAAALQTNALQQSAFGMDPAAVQAALLANEQARFQLAAAAAQGNEYIMYHQAKQQELPGRIPSSGNASAFGEQYLSNALATASLPSYQMNPALRTLNRFTPY, MQELKDKIKKLGYEEIKDIDDATFIASHKNVYVYVKKVDEEQLKPELVTAITYEAMATDPISTYAWITNGTSNAYVLVEEEKAVSEIPSVFEDENKLYSGKRQLTDRDKWSIRKYQELQEKFDGLHEMIYGMKDHVNNSNDVIDEFSKLIFLETFRLYHPEYRLTKGNVTGKLFNEIYRYEYVEKHKDKAVQEIREAFKEIKDHADYVAILDNGEKANIFSADEYIKLENPNIYIAVLKALQDLGTIIIDGVERPATLRDLTGDVLGRVFDVLLRGKFENKGGMGIYLTPRQVTEAAAEMVLHDLTKDGAAKLIAKDPKTGIPTLRIGDLCCGSGGFLIKMLQKIEHYLLNKLTGDKKQYEELFEQMKEHCFIGADNAPGMVLKARINMALHGAPKCPIFQTRNSLMNTRLKPGTFDAILTNPPFSKTGISKTIKKGKTTVENPEGAEIIKYYSSDIDEDGQNRMSPYGLSLGSKPDSRGKWKEVNSVDPAVLFIDRNLQLLKPGGLLMIVVPDGILSNSGDKYVREYIMGKKNPVTGEFEGGKAILKAVISLPQVTFALSGAGAKTSLLYLKKKEHPGEKQGPVFMAVADEVGFTVKQNVEVQLGDDHNDLLKIVEAYKKGMPEDVE, MQEYSIDITLTHPDDVLALFGSNERHLKLIEAHLGVIVHARTERVQVIGEDEEAVELARLTIKALLVLVGRGMVVNTSDVVTALSMAESHQIDQFMALYEEEIIKDNYGKAIRVKTLGQKTYVDSVKRHDVVFGVGPAGTGKTFLAVTLAVTALKRGQVKRIILTRPAVEAGESLGFLPGDLKEKVDPYLRPVYDALYHILGKEQTTRLMERDVIEIAPLAYMRGRTLDDAFVILDEAQNTTIMQMKMFLTRLGFNSKMIVNGDTSQIDLPRNVKSGLIDATQKLQGIKQIDFVYFSAKDVVRHPVVADIIKAYETSSEEMKDLLKPKASDVEADYQPGLTKYPVIGQEHLEHHHHHH, MQFLSPLILFTSCTLLATSLLAAEQAPPPSECLIKSQQISSQIQDAKTEGNKAEQSGLEKALAEVNANCTETSLLKQREQKVLDAKREVSRRQTDLNKAMDKGDPEKINKRKDKLAESRKELQEAQTDLEKVQSDDLEHHHHHH, MQFNNKPLIGVVHLPPLPGSPGYKGELDEVIDRAISDAAKYQEAGFDAIILENYGDFPYSKTVGKETVSAFSVVANEVKREIALPLGINVLRNDCIAAYSIAYSIKADFIRVNVLTGVAFTDQGIVEGCARELAELRTRLPSRIDVLADVHVKHATHFSNFENALLDTIERGGADAVIVTGSRTGSEVDIQELITAKRISPVPVLVGSGVNPRNIKLFWRYSDGFIVGTWVKEGGRTINEVSIERATKLAKLVKSLREGLEHHHHHH
